Laboratory results reported in article doi:10.1101/2025.05.01.651538.
One block for each substance: values may come before it.

Assays:
[1] = system: KDM5ACAT; test: EMSA; settings: Nucleosome EMSA: 100 nM nucleosome, 50 mM HEPES pH 7.5, 50 mM KCl, 1 mM BME, 0.01% Tween-20, 0.01% BSA, 5% sucrose, 1 h on ice, DNA EMSA: 100 nM DNA, TE …
[2] = target: acidic patch mutant (APM) H3K4me3 147bp nucleosome (human)
[3] = target: acidic patch mutant (APM) H3K4me3 147bp nucleosome (human); test: native gel or EMSA; direct binding: 100 nM nucleosome, varying concentrations of KDM5A; 50 mM HEPES pH 7.5, 50 mM KCl, 1 mM BME, 0.01% Tween-20, 0.01% BSA, 5% sucrose; 1 hour on ice; 7.5% gel at 4°C, SYBR gold; fit with Hill slope
[4] = target: acidic patch mutant (APM) unmodified 147bp nucleosome (H2A E61A, E64S, N68A, D72S, N89A, D90A, E91S) (human); test: as above
[5] = target: acidic patch mutant (APM) unmodified 147bp nucleosome (H2A E61A, E64S, N68A, D72S, N89A, D90A, E91S); test: EMSA; settings: 0-32 µM KDM5A^MutR titrated against APM 147bp nucleosome

Sequence of KDM5A^CAT (KDM5A 1–801, minimal catalytically active construct) (P29375 1-801): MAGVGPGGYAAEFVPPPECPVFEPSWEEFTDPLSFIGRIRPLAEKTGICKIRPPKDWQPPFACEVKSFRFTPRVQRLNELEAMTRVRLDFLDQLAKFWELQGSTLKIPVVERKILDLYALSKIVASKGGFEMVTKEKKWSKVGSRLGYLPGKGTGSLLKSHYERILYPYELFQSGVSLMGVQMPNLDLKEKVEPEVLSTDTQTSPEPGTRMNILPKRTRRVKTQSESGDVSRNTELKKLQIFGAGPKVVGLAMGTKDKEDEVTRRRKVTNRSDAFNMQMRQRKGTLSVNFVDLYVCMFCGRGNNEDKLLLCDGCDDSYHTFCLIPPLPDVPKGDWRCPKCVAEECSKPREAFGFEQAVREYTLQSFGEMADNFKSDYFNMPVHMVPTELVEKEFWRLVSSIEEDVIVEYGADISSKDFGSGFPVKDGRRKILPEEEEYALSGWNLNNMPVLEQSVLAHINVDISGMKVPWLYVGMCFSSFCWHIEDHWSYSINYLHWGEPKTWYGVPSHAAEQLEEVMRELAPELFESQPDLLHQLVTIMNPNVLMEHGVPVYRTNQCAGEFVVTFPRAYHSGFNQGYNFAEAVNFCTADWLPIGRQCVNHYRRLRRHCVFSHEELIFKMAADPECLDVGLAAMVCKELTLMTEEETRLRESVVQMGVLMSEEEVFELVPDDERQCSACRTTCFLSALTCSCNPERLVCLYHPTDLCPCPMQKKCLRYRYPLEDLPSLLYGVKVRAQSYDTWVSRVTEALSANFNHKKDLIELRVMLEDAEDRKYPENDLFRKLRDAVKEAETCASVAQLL

Substance: 147bp APM nucleosome, unmodified
binding signal ([1]; H2A E61A;E64S;N68A;D72S;N89A;D90A;E91S, scale: fold loss in affinity vs wild-type 147bp nucleosome): 3

Substance: 147bp nucleosome, wild-type unmodified
binding signal ([1]; scale: fold higher affinity than APM 147bp nucleosome): 3

Substance: H3K4me3 APM nucleosome
binding signal ([1]; H3K4me3, H2A E61A;E64S;N68A;D72S;N89A;D90A;E91S, scale: fold lower affinity vs wild-type H3K4me3 nucleosome): 2

fold decrease in demethylation of H3K4me3 on APM 147bp nucleosomes relative to wild-type nucleosomes, western blot, single turnover (5 μM KDM5A enzyme, 50 nM substrate) [2]: 9 fold | fold lower affinity relative to wild-type H3K4me3 nucleosome [3]: 2 fold | fold loss in affinity relative to wild-type 147bp nucleosome [4]: 3 fold
Substance: KDM5A^CAT (KDM5A 1–801, minimal catalytically active construct) (from UniProt P29375 1-801) (domain or fragment)

Kd [5]: 14 µM
Substance: KDM5A^CAT (KDM5A 1–801, minimal catalytically active construct) (from UniProt P29375) R210A; R217A; R219A; R220A; R232A; R264A; R265A; R266A; R271A; R280A; R282A
